Tests used:
Assay in all cases: SEC
[1] = target: recombinant motavizumab dimeric IgA1 (UniProt P01591)
[2] = target: recombinant motavizumab dimeric IgA2 (UniProt P01591)
[3] = target: recombinant palivizumab dimeric IgA2 (UniProt P01591)
[4] = target: recombinant palivizumab dimeric IgA1 (UniProt P01591)

sIgA formation [1]: 100%
sIgA formation [2]: 100%
sIgA formation [3]: 100%
sIgA formation [4]: 100%
Substance: secretory component (domain or fragment)
